Reference: article PMC11771877 (PLOS Pathogens, 2025)

Tests used:
Test in all cases: pull-down
Settings in all cases: both partners purified
[1] = biological target: Omicron mutant N protein, His-tagged (SARS-CoV-2, UniProt P0DTC9 1-419, P13L | RG203/204KR)
[2] = biological target: R203M and D377Y mutant N protein, His-tagged (SARS-CoV-2, UniProt P0DTC9 1-419, R203M | D377Y)
[3] = biological target: original purified His-tagged N protein (SARS-CoV-2, UniProt P0DTC9 1-419)

Measured: binding result

B1: purified RIG-I-GST protein (natural protein)
chain: MTTEQRRSLQAFQDYIRKTLDPTYILSYMAPWFREEEVQYIQAEKNNKGPMEAATLFLKFLLELQEEGWFRGFLDALDHAGYSGLYEAIESWDFKKIEKLEEYRLLLKRLQPEFKTRIIPTDIISDLSECLINQECEEILQICSTKGMMAGAEKLVECLLRSDKENWPKTLKLALEKERNKFSELWIVEKGIKDVETEDLEDKMETSDIQIFYQEDPECQNLSENSCPPSEVSDTNLYSPFKPRNYQLELALPAMKGKNTIICAPTGCGKTFVSLLICEHHLKKFPQGQKGKVVFFANQIPVYEQQKSVFSKYFERHGYRVTGISGATAENVPVEQIVENNDIIILTPQILVNNLKKGTIPSLSIFTLMIFDECHNTSKQHPYNMIMFNYLDQKLGGSSGPLPQVIGLTASVGVGDAKNTDEALDYICKLCASLDASVIATVKHNLEELEQVVYKPQKFFRKVESRISDKFKYIIAQLMRDTESLAKRICKDLENLSQIQNREFGTQKYEQWIVTVQKACMVFQMPDKDEESRICKALFLYTSHLRKYNDALIISEHARMKDALDYLKDFFSNVRAAGFDEIEQDLTQRFEEKLQELESVSRDPSNENPKLEDLCFILQEEYHLNPETITILFVKTRALVDALKNWIEGNPKLSFLKPGILTGRGKTNQNTGMTLPAQKCILDAFKASGDHNILIATSVADEGIDIAQCNLVILYEYVGNVIKMIQTRGRGRARGSKCFLLTSNAGVIEKEQINMYKEKMMNDSILRLQTWDEAVFREKILHIQTHEKFIRDSQEKPKPVPDKENKKLLCRKCKALACYTADVRVIEECHYTVLGDAFKECFVSRPHPKPKQFSSFEKRAKIFCARQNCSHDWGIHVKYKTFEIPVIKIESFVVEDIATGVQTLYSKWKDFHFEKIPFDPAEMSK
notes: also called GST-RIG-I; RIG-I protein (labeled with GST tag); source: E. coli BL21, purified (GSH Magnetic Agarose Beads)
binds: all assays above
